Assay results published in patent US20240124576A1 (SHANGHAI JEMINCARE PHARMACEUTICAL, published 2024).

T1: biotinylated human Siglec-15 protein (Acrobiosystems, Cat. No. SG5-H82E9) (human, UniProt Q6ZMC9 20-263, biotinylated)
T1 construct: Bought reagent; also called HS-15 Biotin; human S-15 Biotin
T1 sequence (looked up): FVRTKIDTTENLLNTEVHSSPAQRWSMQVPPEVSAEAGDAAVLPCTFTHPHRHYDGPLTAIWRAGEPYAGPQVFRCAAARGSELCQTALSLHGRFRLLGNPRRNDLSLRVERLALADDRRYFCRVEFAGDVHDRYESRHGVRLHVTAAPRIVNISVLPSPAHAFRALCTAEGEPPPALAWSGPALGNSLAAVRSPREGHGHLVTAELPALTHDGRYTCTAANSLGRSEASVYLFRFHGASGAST

T2: human Siglec-15 (Acro, Cat. No. SG5-H52H3) (human, UniProt Q6ZMC9 20-263)
T2 construct: Bought reagent used as the analyte in the Octet assay; also called antigen
T2 sequence (looked up): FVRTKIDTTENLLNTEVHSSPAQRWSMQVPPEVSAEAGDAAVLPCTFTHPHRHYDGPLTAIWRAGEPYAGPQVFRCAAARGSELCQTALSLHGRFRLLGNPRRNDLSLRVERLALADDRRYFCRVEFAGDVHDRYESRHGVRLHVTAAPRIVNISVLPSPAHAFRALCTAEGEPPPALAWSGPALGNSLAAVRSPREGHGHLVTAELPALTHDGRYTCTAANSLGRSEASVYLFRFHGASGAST


Each binder was assayed against T1, biotinylated human Siglec-15 protein … (assay: flow cytometry of yeast-displayed Fab, 1 nM HS-15 Biotin 30 min, 2 h wash).
Experimental: After sequencing analysis, the single clone with single sequence was identified by flow cytometry staining, incubated with 1 nM HS-15 Biotin for 30 min, respectively, and washed with 1 mL 1×PBSA for 2 h at room temperature; after flow cytometry analysis, the fluorescence intensity of different clones binding to antigen was compared.

Binder | Binding MFI | Binding force (Displaying MFI/Binding MFI) *10000
Ab0 parent sequence displayed on yeast in the form of Fab (Fab, V domains shown) VH: EVQLLESGGGLVQPGGSLRLSCAASGFTFSSYAMSWVRQAPGKGLEWVSTISGGGGSTYYADSVKGRFTISRDNSKNTLYLQMNSLRAEDTAVYYCAKAIGSSWYSDAFDLWGQGTMVTVSS VL: DIQMTQSPSSVSASVGDRVTITCRASQDISSWLAWYQQKPGKAPKLLIYVASSLQSGVPSRFSGSGSGTDFTLTISSLQPEDFATYYCQQSYSIPYTFGQGTKLEIK | 52.2 MFI | 219
Ab2 (clone YC32A6) displayed on yeast in the form of Fab (Fab, V domains shown) VH: EVQLLESGGGLVQPGGSLRLSCAASGFTSSSYAMSWVRQAPGKGLEWVSTISGGGGSTYYADSVKGRFTISRDNSKNTLYLQMNSLRAEDTAVYYCAKAIGSSWYSDAFDLWGQGTMVTVSS VL: DIQMTQSPSSVSASVGDRVTITCRASQDISSWLAWYQQKPGKAPKLLIYVASSLQSGVPSRFSGSGSGTDFTLTISSLQPEDFATYYCQQSYSIPYTFGQGTKLEIK | 133 MFI | 441
Ab13 (clone YC45H4) displayed on yeast in the form of Fab (Fab, V domains shown) VH: EVQLLESGGGLVQPGGSLRLSCAASGFTFSSYAMSWVRQAPGKGLEWVSTITGGGESTYYADSVKGRFTISRDNSKNTLYLQMNSLRAEDTAVYYCAKAIGSSWYSDAFDLWGQGTMVTVSS VL: DIQMTQSPSSVSASVGDRVTITCRASQDISSWLAWYQQKPGKAPKLLIYVASFEHRGVPSRFSGSGSGTDFTLTISSLQPEDFATYYCQQSYSIPYTFGQGTKLEIK | 109 MFI | 465
Ab3 (clone YC33B2) displayed on yeast in the form of Fab (Fab, V domains shown) VH: EVQLLESGGGLVQPGGSLRLSCAASGFTFSSYAMSWVRQAPGKGLEWVSTITGGGESTYYADSVKGRFTISRDNSKNTLYLQMNSLRAEDTAVYYCAKAIGSSWYSDAFDLWGQGTMVTVSS VL: DIQMTQSPSSVSASVGDRVTITCRASQDISSWLAWYQQKPGKAPKLLIYVASSLQSGVPSRFSGSGSGTDFTLTISSLQPEDFATYYCQQSYSIPYTFGQGTKLEIK | 188 MFI | 658
Ab6 (clone YC33G4) displayed on yeast in the form of Fab (Fab, V domains shown) VH: EVQLLESGGGLVQPGGSLRLSCAASGFTFSSYAMSWVRQAPGKGLEWVSTIWGGGGSTYYADSVKGRFTISRDNSKNTLYLQMNSLRAEDTAVYYCAKAIGSSWYSDAFDLWGQGTMVTVSS VL: DIQMTQSPSSVSASVGDRVTITCRASQDISSWLAWYQQKPGKAPKLLIYVASSLQSGVPSRFSGSGSGTDFTLTISSLQPEDFATYYCQQSYSIPYTFGQGTKLEIK | 94.2 MFI | 411
Ab7 (clone YC33D5) displayed on yeast in the form of Fab (Fab, V domains shown) VH: EVQLLESGGGLVQPGGSLRLSCAASGFTFSSYAMSWVRQAPGKGLEWVSTISGGGVYTYYADSVKGRFTISRDNSKNTLYLQMNSLRAEDTAVYYCAKAIGSSWYSDAFDLWGQGTMVTVSS VL: DIQMTQSPSSVSASVGDRVTITCRASQDISSWLAWYQQKPGKAPKLLIYVASSLQSGVPSRFSGSGSGTDFTLTISSLQPEDFATYYCQQSYSIPYTFGQGTKLEIK | 113 MFI | 455
Ab15 (clone YC44F5) displayed on yeast in the form of Fab (Fab, V domains shown) VH: EVQLLESGGGLVQPGGSLRLSCAASGFTFSSYAMSWVRQAPGKGLEWVSTITGGGESTYYADSVKGRFTISRDNSKNTLYLQMNSLRAEDTAVYYCAKAIGSSWYSDAFDLWGQGTMVTVSS VL: DIQMTQSPSSVSASVGDRVTITCRASQDISSWLAWYQQKPGKAPKLLIYVASYIHSGVPSRFSGSGSGTDFTLTISSLQPEDFATYYCQQSYSIPYTFGQGTKLEIK | 105 MFI | 409
Ab9 (clone YC29B3) displayed on yeast in the form of Fab (Fab, V domains shown) VH: EVQLLESGGGLVQPGGSLRLSCAASGFTFSSYAMSWVRQAPGKGLEWVSTISGGGGSTYYADSVKGRFTISRDNSKNTLYLQMNSLRAEDTAVYYCAKAIGSSWYSDAFDLWGQGTMVTVSS VL: DIQMTQSPSSVSASVGDRVTITCRASQDISDWLAWYQQKPGKAPKLLIYVASSLQSGVPSRFSGSGSGTDFTLTISSLQPEDFATYYCQQSYSIPYTFGQGTKLEIK | 131 MFI | 289
Ab5 (clone YC33D1) displayed on yeast in the form of Fab (Fab, V domains shown) VH: EVQLLESGGGLVQPGGSLRLSCAASGFTFSSYAMSWVRQAPGKGLEWVSTIYGGGGSTYYADSVKGRFTISRDNSKNTLYLQMNSLRAEDTAVYYCAKAIGSSWYSDAFDLWGQGTMVTVSS VL: DIQMTQSPSSVSASVGDRVTITCRASQDISSWLAWYQQKPGKAPKLLIYVASSLQSGVPSRFSGSGSGTDFTLTISSLQPEDFATYYCQQSYSIPYTFGQGTKLEIK | 135 MFI | 480

The binders below were run against T2, human Siglec-15 (Acro, Cat. No. …) (assay: BLI (Octet RED96e), antibody captured on AHC sensor, 30 nM antigen, 1:1 fit; second assay).
Set-up: Response value: unit not given here
Experimental: Affinity of Siglec-15 binding protein of the present application to human Siglec-15 (Acro, Cat. No.: SG5-H52H3) was determined using Octet RED96e (Fortebio), both of the antigen and the Siglec-15 binding protein of the present application were diluted with 1×PBST (1×PBS: Sangon, B548117-0500; 0.02% Tween 20: Sigma-aldrich, P1379). The antigen is used at a concentration of 30 nM and the Siglec-15 binding protein of the present application is used at a concentration of 33.3 nM.
First, a sample was added to a 96-well plate (Greiner bio-one, 655209) in a system of 200 μL/well. Software parameters were then set, the plate temperature was set to 30° C., and the frequency at which the standard kinetic signal was collected was 5.0 Hz. Next, the AHC sensor (Fortébio, Cat. No.: 18-0015) was pre-wetted with 1×PBST for 10 min, then the sample was loaded on the machine for detection, with each cycle containing the following steps: 1) immersing the sample in buffer for 60 s; 2) detecting whether the antigen has non-specific binding to the sensor; 3) regenerating in a 10 mM glycine solution at pH 1.7; 4) immersing in buffer for 60 s; 5) immobilizing the Siglec-15 binding protein of the present application on the sensor for 20 s; 6) immersing the sensor in buffer for 180 s; 7) binding the antigen to the Siglec-15 binding protein of the present application for 180 s; 8) dissociating the antigen with Siglec-15 binding protein of the present application for 10 min; and 9) regenerating the sensor.
The equilibrium dissociation constant (KD) of the Siglec-15 binding protein of the present application was calculated by determining the binding rate constant (kon) and dissociation rate constant (kdis) of the antigen-Siglec-15 binding protein of the present application in a 1:1 binding manner using Data Analysis 12.0 software fromx Fortebio.

Binder | Kd | Response value | koff | kon
Ab3, purified Siglec-15 binding protein in the form of IgG1 (antibody, V domains shown, Expressed in ExpiCHO cells in the form of IgG1) VH: EVQLLESGGGLVQPGGSLRLSCAASGFTFSSYAMSWVRQAPGKGLEWVSTITGGGESTYYADSVKGRFTISRDNSKNTLYLQMNSLRAEDTAVYYCAKAIGSSWYSDAFDLWGQGTMVTVSS VL: DIQMTQSPSSVSASVGDRVTITCRASQDISSWLAWYQQKPGKAPKLLIYVASSLQSGVPSRFSGSGSGTDFTLTISSLQPEDFATYYCQQSYSIPYTFGQGTKLEIKR | 0.0444 nM | 0.288 | 1.95e-05 s⁻¹ | 440000 M⁻¹ s⁻¹
Ab6, purified Siglec-15 binding protein in the form of IgG1 (antibody, V domains shown, Expressed in ExpiCHO cells in the form of IgG1) VH: EVQLLESGGGLVQPGGSLRLSCAASGFTFSSYAMSWVRQAPGKGLEWVSTIWGGGGSTYYADSVKGRFTISRDNSKNTLYLQMNSLRAEDTAVYYCAKAIGSSWYSDAFDLWGQGTMVTVSS VL: DIQMTQSPSSVSASVGDRVTITCRASQDISSWLAWYQQKPGKAPKLLIYVASSLQSGVPSRFSGSGSGTDFTLTISSLQPEDFATYYCQQSYSIPYTFGQGTKLEIKR | 0.00843 nM | 0.285 | 2.87e-06 s⁻¹ | 340000 M⁻¹ s⁻¹
Ab13, purified Siglec-15 binding protein in the form of IgG1 (antibody, V domains shown, Expressed in ExpiCHO cells in the form of IgG1) VH: EVQLLESGGGLVQPGGSLRLSCAASGFTFSSYAMSWVRQAPGKGLEWVSTITGGGESTYYADSVKGRFTISRDNSKNTLYLQMNSLRAEDTAVYYCAKAIGSSWYSDAFDLWGQGTMVTVSS VL: DIQMTQSPSSVSASVGDRVTITCRASQDISSWLAWYQQKPGKAPKLLIYVASFEHRGVPSRFSGSGSGTDFTLTISSLQPEDFATYYCQQSYSIPYTFGQGTKLEIKR | 0.0681 nM | 0.305 | 3.79e-05 s⁻¹ | 556000 M⁻¹ s⁻¹
Ab7, purified Siglec-15 binding protein in the form of IgG1 (antibody, V domains shown, Expressed in ExpiCHO cells in the form of IgG1) VH: EVQLLESGGGLVQPGGSLRLSCAASGFTFSSYAMSWVRQAPGKGLEWVSTISGGGVYTYYADSVKGRFTISRDNSKNTLYLQMNSLRAEDTAVYYCAKAIGSSWYSDAFDLWGQGTMVTVSS VL: DIQMTQSPSSVSASVGDRVTITCRASQDISSWLAWYQQKPGKAPKLLIYVASSLQSGVPSRFSGSGSGTDFTLTISSLQPEDFATYYCQQSYSIPYTFGQGTKLEIKR | 0.00508 nM | 0.284 | 1.44e-06 s⁻¹ | 282000 M⁻¹ s⁻¹
Ab2, purified Siglec-15 binding protein in the form of IgG1 (antibody, V domains shown, Expressed in ExpiCHO cells in the form of IgG1) VH: EVQLLESGGGLVQPGGSLRLSCAASGFTSSSYAMSWVRQAPGKGLEWVSTISGGGGSTYYADSVKGRFTISRDNSKNTLYLQMNSLRAEDTAVYYCAKAIGSSWYSDAFDLWGQGTMVTVSS VL: DIQMTQSPSSVSASVGDRVTITCRASQDISSWLAWYQQKPGKAPKLLIYVASSLQSGVPSRFSGSGSGTDFTLTISSLQPEDFATYYCQQSYSIPYTFGQGTKLEIKR | 0.155 nM | 0.262 | 6.96e-05 s⁻¹ | 448000 M⁻¹ s⁻¹
Ab5, purified Siglec-15 binding protein in the form of IgG1 (antibody, V domains shown, Expressed in ExpiCHO cells in the form of IgG1) VH: EVQLLESGGGLVQPGGSLRLSCAASGFTFSSYAMSWVRQAPGKGLEWVSTIYGGGGSTYYADSVKGRFTISRDNSKNTLYLQMNSLRAEDTAVYYCAKAIGSSWYSDAFDLWGQGTMVTVSS VL: DIQMTQSPSSVSASVGDRVTITCRASQDISSWLAWYQQKPGKAPKLLIYVASSLQSGVPSRFSGSGSGTDFTLTISSLQPEDFATYYCQQSYSIPYTFGQGTKLEIKR | 0.0076 nM | 0.277 | 2.57e-06 s⁻¹ | 338000 M⁻¹ s⁻¹
